The values below come from patent US20100172907A1 (Hoffmann-La Roche, published 2010).

Assay [1] deals with T1, human Aβ (1-40) peptide (human).
T1 construct: also called Aβ1-40 fibers
The assay can be described thus: SPR, kinetic fit, immobilized fibers. (In general: In SPR one partner is held on a chip, and binding of the other changes the refractive index at the surface.)
Description: (§1) Biacore2000 and Biacore3000 instruments were used for these measurements. Aβ1-40 and Aβ1-42 fibers were generated in vitro by incubation of synthetic peptides at a concentration of 200 μg/ml in 10 mM Na-acetate buffer (pH 4.0) for three days at 37° C. […] For binders with slow kinetics KD values were calculated by curve fitting of the time-dependent sensor responses, i.e. from the ratio of koff/kₒₙ. Binders with fast kinetics were analyzed by fitting the concentration-dependent sensor responses at equilibrium (adsorption-isotherms). KD values were calculated from the Biacore sensograms based on the total Fab concentration as determined by a protein assay. […] Briefly, time-dependent protein binding to Aβ1-40 fibers immobilized on the Biacore chip was measured during the association phase under mass-limited conditions at different flow rates of the analyte solution.

Assay [2] concerns the target T2, Aβ (1-42) peptide (human).
T2 construct: also called Aβ1-42 fibers; Aβ4
Put plainly: SPR, kinetic fit, immobilized fibers.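 Note: surface plasmon resonance on a Biacore chip bearing in vitro formed Aβ1-40 or Aβ1-42 fibers, KD taken as koff/kon by fitting time-resolved sensor responses, based on total Fab concentration.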
Description: as §1

The target of assay [3] is T3, BSA-conjugated Aβ heptapeptide AEFRHDC (C-terminal Cys coupled to NSMP-activated BSA).
T3 construct: also called Peptide 2-7
T3 peptide: AEFRHDC
Put plainly: ELISA.
Description: (§2) 50 μl of NSMP activated BSA (6.7 mg/ml) was diluted with 50 μl of PBS, 0.1% sodium azide and 10 μl of peptide solution (1 mM in DMSO) was added. As negative control activated BSA was mock-treated without peptide addition. After 4 hrs at room temperature the reaction was stopped by addition of 10 μl of 10 mM Cystein. An aliquot of the conjugate reaction mixture was diluted 1:100 with 0.1M sodium bicarbonate buffer and immediately filled into the wells (100 μl) of ELISA plates (Nunc Immuno-Plate). After standing 16 hrs at 4° C. 100 μl blocking buffer (as above) was added to each well and incubated for another 30 minutes. The plates were washed with 2×300 μl/well TBST (as above) and filled with 100 μl antibody at 10 μg/ml or 2 μg/ml in blocking buffer. The plates were kept 16 hours at 4° C. and washed with 2×300 μl TBST. 100 μl/well HRP-conjugated anti-human Ig H+L (Pierce, dilution 1:1000 with blocking buffer) was added and incubated for 1 hour at ambient temperature. The plates were washed with 3×300 μl/well TBST. Colour development was started by addition of 100 μl tetra-methyl benzidine/hydrogen peroxide reagent.

The target of assay [4] is T4, BSA-conjugated Aβ heptapeptide LVFFAEC (reading uncertain; also: BSA conjugate).
T4 construct: also called Peptide 17-22
T4 peptide: LVFFAEC([NSMP-BSA])
Put plainly: ELISA.
Description: as §2

Assay [5] deals with T5, BSA-conjugated Aβ heptapeptide VFFAEDC (C-terminal Cys coupled to NSMP-activated BSA).
T5 construct: also called Peptide 18-23
T5 peptide: VFFAEDC
Put plainly: ELISA. In general terms: ELISA stands for enzyme-linked immunosorbent assay.
Description: as §2

Assay [6] addresses T6, BSA-conjugated Aβ heptapeptide FFAEDVC (C-terminal Cys coupled to NSMP-activated BSA).
T6 construct: also called Peptide 19-24
T6 peptide: FFAEDVC
Put plainly: ELISA.
Description: as §2

Assay [7] addresses T1, human Aβ (1-40) peptide. Put plainly: SPR Scatchard, higher affinity (bivalent).
Description: (§3) Binders with fast kinetics were analyzed by fitting the concentration-dependent sensor responses at equilibrium (adsorption-isotherms). KD values were calculated from the Biacore sensograms based on the total Fab concentration as determined by a protein assay. […] Briefly, time-dependent protein binding to Aβ1-40 fibers immobilized on the Biacore chip was measured during the association phase under mass-limited conditions at different flow rates of the analyte solution.
(§4) KD values of IgG binding to Aβ1-40 and Aβ1-42 fibers were determined in the Biacore. Briefly, a kinetic model for the stepwise formation of a bivalent complex was used, and KD values were calculated by Scatchard type analysis of equilibrium binding. Due to the very slow association process at low antibody concentration (several hours to reach equilibrium) equilibrium binding data were obtained by extrapolation of the association curves to long time intervals. The on- and off rates for the formation of the monovalent and bivalent complex were determined via the curve fit procedure and used for the extrapolation. Based on these Req values a Scatchard analysis was performed and KD values for the formation of the monovalent and the bivalent complex were determined.
The target in assay [8] is T2, Aβ (1-42) peptide. The assay can be described thus: SPR Scatchard, higher affinity (bivalent).
Description: as §3, §4

Numbering of substitutions follows the chain as printed. Groups on a side chain read outwards from the residue. No end group written: not given here. NSMP = not defined here
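Throughout, for OD ratio 17-22/BSA: ELISA binding of human antibody (10 or 2 µg/ml) to plate-coated BSA–peptide conjugates, detected with HRP anti-human Ig and TMB colour, mock-treated BSA as negative control.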
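Throughout, for OD ratio 18-23/BSA: ELISA binding of human antibody (10 or 2 µg/ml) to plate-coated BSA–peptide conjugates, detected with HRP anti-human Ig and TMB colour, mock-treated BSA as negative control.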
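Throughout, for OD ratio 2-7/BSA: ELISA binding of human antibody (10 or 2 µg/ml) to plate-coated BSA–peptide conjugates, detected with HRP anti-human Ig and TMB colour, mock-treated BSA as negative control.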
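Throughout, for Peptide-ratio 17-22/2-7: ELISA binding of human antibody (10 or 2 µg/ml) to plate-coated BSA–peptide conjugates, detected with HRP anti-human Ig and TMB colour, mock-treated BSA as negative control.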

B1: MS-Roche #7.4H2×7.12L2 Fab (Fab, V domains shown)
VH: QLVESGGGLVQPGGSLRLSCAASGFTFSSYAMSWVRQAPGKGLEWVSAINYNGARIYYADSVKGRFTISRDNSKNTLYLQMNSLRAEDTAVYYCARGKGNTHKPYGYVRYFDVWGQGTLVTVSS
VL: DIVLTQSPATLSLSPGERATLSCRASQRFFYKYLAWYQQKPGQAPRLLISGSSNRATGVPARFSGSGSGTDFTLTISSLEPEDFAVYYCLQLYNIPNTFGQGTKVEIKR
notes: cross-cloned Fab
Take B1: the Kd with human Aβ (1-40) peptide [1] turned out to be 1.4 nM; with Aβ (1-42) peptide [2], 1.8 nM.

B2: MS-Roche #7.9H2×7.12L2(L1+2) Fab (Fab, V domains shown)
VH: B1 VH with Y51A, N52D, A54N, I56K
VL: B1 VL with V86T, L92I, I95M, N97I
notes: VL assembled from the legend's definition and cloning strategy 3
In the case of B2, the Kd with human Aβ (1-40) peptide [1] and with Aβ (1-42) peptide [2] was 0.4 nM throughout.

B3: MS-R IgG 7.11H2 (antibody, V domains shown)
VH: QVELVESGGGLVQPGGSLRLSCAASGFTFSSYAMSWVRQAPGKGLEWVSAINANGYKKYYADSVKGRFTISRDNSKNTLYLQMNSLRAEDTAVYYCARGKGNTHKPYGYVRYFDVWGQGTLVTVSS
VL: DIVLTQSPATLSLSPGERATLSCRASQSVSSSYLAWYQQKPGQAPRLLIYGASSRATGVPARFSGSGSGTDFTLTISSLEPEDFATYYCQQVYSPPHTFGQGTKVEIKR
notes: full-length human IgG; also called 7.11H2 IgG
In the case of B3, the “OD ratio 2-7/BSA” value in assay [3] amounted to 10. For the same molecule, in assay [4], the “OD ratio 17-22/BSA” value is 6 and the “Peptide-ratio 17-22/2-7” value was 0.6. In assay [5], the “OD ratio 18-23/BSA” value came out at 7 and the “Peptide-ratio 18-23/2-7” value turned out to be 0.7. Besides, in assay [6], the “OD ratio 19-24/BSA” value is 6 and the “Peptide-ratio 19-24/2-7” value stood at 0.6.

B4: MS-R IgG1 7.2.H4 (antibody, V domains shown)
VH: B3 VH with A53S, N54K, Y56S, K57R, K58I
VL: DIVLTQSPATLSLSPGERATLSCRASQSVSSSYLAWYQQKPGQAPRLLIYGASSRATGVPARFSGSGSGTDFTLTISSLEPEDFATYYCQQIYSFPHTFGQGTKVEIK
notes: full-length human IgG1
As for B4, the values for the Kd with human Aβ (1-40) peptide [7] and with Aβ (1-42) peptide [8] were 0.09 to 0.3 nM and 0.1 to 0.66 nM, respectively.

B5: MS-Roche #7.11H1×7.2L1 Fab (Fab, V domains shown)
VH: B1 VH with A48G, Y51A, N52A, A54F, I56T
VL: B3 VL with S28Y, S30D, S31R, S32T, V92I, P95F
notes: cross-cloned Fab; VH entry starts at QLVESGG
For the molecule B5, the Kd turned out to be 1.75 nM with human Aβ (1-40) peptide [1] and 1.39 nM in the assay with Aβ (1-42) peptide [2].

B6: MS-R IgG1 3.6.H8 × 3.6.L2 (antibody, V domains shown)
VH: ELVESGGGLVQPGGSLRLSCAASGFTFSSYAMSWVRQAPGKGLEWVSAISEYSKFKYYADSVKGRFTISRDNSKNTLYLQMNSLRAEDTAVYYCARLTHYARYYRYFDVWGQGTLVTVSS
VL: B3 VL with S28F, V29L, S31R, S32Y, T86V, V92T, S94N, P95Y, H97P
notes: full-length human IgG1; VH entry starts at QLVESGG
On to B6, for which the Kd was 0.22 to 0.95 nM with human Aβ (1-40) peptide [7] and 0.22 to 0.82 nM in the assay with Aβ (1-42) peptide [8].

B7: MS-Roche #8.1H1×8.2L1 Fab (Fab, V domains shown)
VH: QLVESGGGLVQPGGSLRLSCAASGFTFSSYAMSWVRQAPGKGLEWVSAISRSGSNIYYADSVKGRFTISRDNSKNTLYLQMNSLRAEDTAVYYCARLLSRGYNGYYHKFDVWGQGTLVTVSS
VL: B3 VL with S28R, S31G, S32R, V92L, Y93S, P95Y, H97P
notes: cross-cloned Fab
For the molecule B7, the results for the Kd in the assay with human Aβ (1-40) peptide [1] and in the assay with Aβ (1-42) peptide [2] were 1.3 nM and 1.6 nM, respectively.

B8: MS-R IgG1 7.12.L1 (antibody, V domains shown)
VH: B3 VH with E3Q, A33G, A50N, N52S, A53G, N54S, Y56S, K57S, K58T
VL: B1 VL with R28Y, F29V, Y31R, K32R
notes: full-length human IgG1
For the molecule B8, the Kd with human Aβ (1-40) peptide [7] lay in the range of 1.2 to 3.5 nM; with Aβ (1-42) peptide [8], 0.74 to 2.9 nM.

B9: MS-R IgG 8.2.H2 × 8.2.L1 (antibody, V domains shown)
VH: QVELVESGGGLVQPGGSLRLSCAASGFTFSSYAMSWVRQAPGKGLEWVSAISRTGSKTYYADSVKGRFTISRDNSKNTLYLQMNSLRAEDTAVYYCARLLSRGYNGYYHKFDVWGQGTLVTVSS
VL: B3 VL with S28R, S31G, S32R, V92L, Y93S, P95Y, H97P
notes: full-length human IgG
For B9, in assay [3], the “OD ratio 2-7/BSA” value stood at 13. In assay [4], the “OD ratio 17-22/BSA” value was determined as 20 and the “Peptide-ratio 17-22/2-7” value was 1.54. In assay [5], the “OD ratio 18-23/BSA” value amounted to 25 and the “Peptide-ratio 18-23/2-7” value was 1.92. For the same molecule, in assay [6], the “OD ratio 19-24/BSA” value was found to be 25 and the “Peptide-ratio 19-24/2-7” value was 1.92.

B10: MS-Roche #7.2H2×7.2L1 Fab (Fab, V domains shown)
VH: B1 VH with Y51G, N52T, A54M, R55K, I56K
VL: B3 VL with S28Y, S30D, S31R, S32T, V92I, P95F
notes: cross-cloned Fab
For B10, the Kd in the assay with human Aβ (1-40) peptide [1] was determined as 1.29 nM; with Aβ (1-42) peptide [2], 1.43 nM.

B11: MS-R IgG1 7.11.H1 × 7.11.L1 (antibody, V domains shown)
VH: B1 VH with Q1E, A48G, Y51A, N52A, A54F, I56T
VL: B3 VL with S28R, V29I, S30L, S31R, S32I
notes: as for B6
For the molecule B11, the Kd lay within 0.11 to 0.7 nM with human Aβ (1-40) peptide [7] and 0.13 to 0.7 nM with Aβ (1-42) peptide [8].

B12: MS-R #7.11.H1×7.2.L1 IgG1 (antibody, V domains shown)
VH: B1 VH with Q1E, A48G, Y51A, N52A, A54F, I56T
VL: B3 VL with S28Y, S30D, S31R, S32T, V92I, P95F
notes: full-length human IgG1; VH entry starts at QLVESGG; also called MAB 11
With B12, the Kd with human Aβ (1-40) peptide [7] lay in the range of 0.14 to 0.66 nM; in the assay with Aβ (1-42) peptide [8], 0.15 to 0.67 nM.

B13: MS-Roche #3.6H5×3.6L2 Fab (Fab, V domains shown)
VH: B6 VH with E1Q, Y52S, S53G, F55T
VL: B3 VL with S28F, V29L, S31R, S32Y, T86V, V92T, S94N, P95Y, H97P
notes: as for B5
Consider B13, for which the Kd came to 1.26 nM in the assay with human Aβ (1-40) peptide [1] and 0.84 nM with Aβ (1-42) peptide [2].

B14: MS-Roche #7.11H1×7.11L1 Fab (Fab, V domains shown)
VH: B1 VH with A48G, Y51A, N52A, A54F, I56T
VL: B3 VL with S28R, V29I, S30L, S31R, S32I
notes: as for B5
For the molecule B14, the Kd was 0.41 nM in the assay with human Aβ (1-40) peptide [1] and 0.47 nM in the assay with Aβ (1-42) peptide [2].

B15: MS-R IgG1 7.4.H2 × 7.2.L1 (antibody, V domains shown)
VH: B1 VH with Q1E
VL: B3 VL with S28Y, S30D, S31R, S32T, V92I, P95F
notes: as for B6
Turning to B15, the Kd was in the range of 0.12 to 0.63 nM with human Aβ (1-40) peptide [7] and 0.12 to 0.56 nM with Aβ (1-42) peptide [8].

B16: MS-Roche #7.4H2×7.2L1 Fab (Fab, V domains shown)
VH: B1 VH
VL: B3 VL with S28Y, S30D, S31R, S32T, V92I, P95F
notes: as for B5
Consider B16, for which the Kd in the assay with human Aβ (1-40) peptide [1] and with Aβ (1-42) peptide [2] was 1.4 nM each time.

B17: MS-Roche #7.11H2×7.2L1(L1) Fab (Fab, V domains shown)
VH: B1 VH with Y51A, A54Y, R55K, I56K
VL: B3 VL with S28Y, S30D, S31R, S32T, V92I, P95F
Turning to B17, the Kd with human Aβ (1-40) peptide [1] is 1 nM; in the assay with Aβ (1-42) peptide [2] it was 0.6 nM.

B18: MS-Roche #3.6H5×3.6L1 Fab (Fab, V domains shown)
VH: B6 VH with E1Q, Y52S, S53G, F55T
VL: B3 VL with S28F, V29I, S30Q, S31R, S32F, T86V, V92T, S94N, P95Y, H97P
notes: cross-cloned Fab
On to B18, for which the Kd with human Aβ (1-40) peptide [1] was 1.25 nM; with Aβ (1-42) peptide [2], 1.04 nM.
